Values quoted from earlier work as cited in article PMC3373023.

Columns and labels:
Asp27 = Asp27 (UniProt position 156, PLCGSDNKTYG)
Asp7 = Asp7 (UniProt position 136, AAVSVDCSEYP)
Lys29 = Lys29 (UniProt position 158, CGSDNKTYGNK)
Lys13 = Lys13 (UniProt position 142, CSEYPKPACTL)
Glu43 = Glu43 (UniProt position 172, CNAVVESNGTL)
Glu19 = Glu19 (UniProt position 148, PACTLEYRPLC)
Tyr20 = Tyr20 (UniProt position 149, ACTLEYRPLCG)
Tyr31 = Tyr31 (UniProt position 160, SDNKTYGNKCN)
Tyr11 = Tyr11 (UniProt position 140, VDCSEYPKPAC)
Glu10 = Glu10 (UniProt position 139, SVDCSEYPKPA)
Lys34 = Lys34 (UniProt position 163, KTYGNKCNFCN)
Lys55 = Lys55 (UniProt position 184, LSHFGKC----)
His52 = His52 (UniProt position 181, TLTLSHFGKC-)
Glu17 = Glu17 (UniProt position 38, YKTCPEGKNLC)
Asp42 = Asp42 (UniProt position 63, KRGCADNCPKN)
His4 = His4 (UniProt position 25, YTLKCHNTQLP)
Asp59 = Asp59 (UniProt position 80, VCCSTDKCN--)

Substance	pKa (Asp27)	pKa (Asp7)	pKa (Lys29)	pKa (Lys13)	pKa (Glu43)	pKa (Glu19)	pKa (Tyr20)	pKa (Tyr31)	pKa (Tyr11)	pKa (Glu10)	pKa (Lys34)	pKa (Lys55)	pKa (His52)	pKa (Glu17)	pKa (Asp42)	pKa (His4)	pKa (Asp59)
Turkey ovomucoid third domain (OMTKY3) (Meleagris gallopavo)	≤2.3	≤2.7	11.1	9.9	4.8	3.2	11.1	>12.5	10.2	4.2	10.1	11.1	7.5				
Cardiotoxin V (CTX A5, cardiotoxin A5) (Naja naja atra (Naja atra, Taiwan cobra))														4.0	3.2	5.6	<2.3
